Test [1] addresses recombinant hexahistidine tagged human Archease (human). Description: SPR. In general terms: Surface plasmon resonance follows binding to a sensor surface in real time, without labels.
Test [2] deals with FLAG-RTCB (human tRNA ligase complex) with recombinant Archease (Homo sapiens, UniProt Q9Y3I0). Description: radiolabelled guanylation, SDS-PAGE autoradiography. Format: biochemical. To be noted: covalent RTCB-guanylate intermediate; labelled compound; Archease 10 μM, ATP, Mg(OAc)2, pH 7.5, 37 °C.
Chain of FLAG-RTCB (human tRNA ligase complex) with recombinant Archease (Q9Y3I0 whole entry): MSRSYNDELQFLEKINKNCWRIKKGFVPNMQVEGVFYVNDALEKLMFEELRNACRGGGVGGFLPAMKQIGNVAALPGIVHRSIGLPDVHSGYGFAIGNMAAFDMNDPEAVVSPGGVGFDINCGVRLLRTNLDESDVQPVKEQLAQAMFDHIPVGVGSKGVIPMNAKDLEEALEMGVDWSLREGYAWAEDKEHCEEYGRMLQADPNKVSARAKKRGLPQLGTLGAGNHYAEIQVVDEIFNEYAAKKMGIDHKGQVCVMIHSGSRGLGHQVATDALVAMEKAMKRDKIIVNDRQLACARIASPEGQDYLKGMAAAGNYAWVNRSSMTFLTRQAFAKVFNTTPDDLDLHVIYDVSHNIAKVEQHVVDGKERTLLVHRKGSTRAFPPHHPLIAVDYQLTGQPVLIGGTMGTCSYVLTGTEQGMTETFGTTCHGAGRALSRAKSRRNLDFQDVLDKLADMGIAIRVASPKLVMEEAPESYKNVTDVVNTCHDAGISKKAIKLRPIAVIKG
Chain of FLAG-RTCB (human tRNA ligase complex) with recombinant Archease (Q8IWT0 2-167 partner): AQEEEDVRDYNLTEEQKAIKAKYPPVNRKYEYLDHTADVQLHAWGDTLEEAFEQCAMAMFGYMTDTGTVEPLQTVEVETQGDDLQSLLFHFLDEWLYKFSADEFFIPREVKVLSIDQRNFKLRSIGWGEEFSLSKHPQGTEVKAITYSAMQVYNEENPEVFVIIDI
Chain of FLAG-RTCB (human tRNA ligase complex) with recombinant Archease (Q92499 whole entry partner): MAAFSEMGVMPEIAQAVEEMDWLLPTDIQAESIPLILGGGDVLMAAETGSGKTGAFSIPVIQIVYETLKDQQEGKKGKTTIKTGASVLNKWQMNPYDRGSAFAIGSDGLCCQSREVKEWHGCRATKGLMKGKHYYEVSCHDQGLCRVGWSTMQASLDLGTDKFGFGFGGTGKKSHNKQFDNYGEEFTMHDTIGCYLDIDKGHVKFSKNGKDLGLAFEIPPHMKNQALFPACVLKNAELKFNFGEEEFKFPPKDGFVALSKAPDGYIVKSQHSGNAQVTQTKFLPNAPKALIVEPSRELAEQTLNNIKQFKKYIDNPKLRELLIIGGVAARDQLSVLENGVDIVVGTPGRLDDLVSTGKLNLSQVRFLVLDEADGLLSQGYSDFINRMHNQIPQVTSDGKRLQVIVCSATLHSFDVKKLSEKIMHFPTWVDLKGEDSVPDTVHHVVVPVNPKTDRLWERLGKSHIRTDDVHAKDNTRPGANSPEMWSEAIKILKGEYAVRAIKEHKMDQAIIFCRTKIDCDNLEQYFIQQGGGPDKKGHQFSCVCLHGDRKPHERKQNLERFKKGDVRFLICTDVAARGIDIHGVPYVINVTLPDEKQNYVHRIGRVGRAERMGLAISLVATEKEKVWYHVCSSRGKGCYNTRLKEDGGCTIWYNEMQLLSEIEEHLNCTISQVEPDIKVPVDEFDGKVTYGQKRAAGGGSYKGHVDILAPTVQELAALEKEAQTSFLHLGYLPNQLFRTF
Chain of FLAG-RTCB (human tRNA ligase complex) with recombinant Archease (Q52LJ0 whole entry partner): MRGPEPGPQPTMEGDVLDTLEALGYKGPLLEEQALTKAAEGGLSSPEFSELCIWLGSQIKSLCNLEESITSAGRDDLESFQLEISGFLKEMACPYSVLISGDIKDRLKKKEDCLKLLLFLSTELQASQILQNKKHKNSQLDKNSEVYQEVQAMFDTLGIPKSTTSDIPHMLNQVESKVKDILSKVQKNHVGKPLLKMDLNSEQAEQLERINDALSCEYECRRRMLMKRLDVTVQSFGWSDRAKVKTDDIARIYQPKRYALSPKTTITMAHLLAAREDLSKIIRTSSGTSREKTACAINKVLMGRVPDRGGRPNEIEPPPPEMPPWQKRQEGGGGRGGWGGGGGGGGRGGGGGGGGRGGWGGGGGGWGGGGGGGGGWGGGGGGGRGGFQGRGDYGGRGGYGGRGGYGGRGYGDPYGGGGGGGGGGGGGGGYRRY
Chain of FLAG-RTCB (human tRNA ligase complex) with recombinant Archease (Q9BVC5 whole entry partner): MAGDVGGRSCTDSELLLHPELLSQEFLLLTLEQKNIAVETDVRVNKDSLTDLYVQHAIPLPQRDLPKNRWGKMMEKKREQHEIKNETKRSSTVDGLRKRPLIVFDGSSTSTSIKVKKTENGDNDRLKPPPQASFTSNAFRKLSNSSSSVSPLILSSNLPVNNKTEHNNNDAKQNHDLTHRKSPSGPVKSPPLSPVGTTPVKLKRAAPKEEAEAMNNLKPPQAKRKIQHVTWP
Chain of FLAG-RTCB (human tRNA ligase complex) with recombinant Archease (Q9Y224 whole entry partner): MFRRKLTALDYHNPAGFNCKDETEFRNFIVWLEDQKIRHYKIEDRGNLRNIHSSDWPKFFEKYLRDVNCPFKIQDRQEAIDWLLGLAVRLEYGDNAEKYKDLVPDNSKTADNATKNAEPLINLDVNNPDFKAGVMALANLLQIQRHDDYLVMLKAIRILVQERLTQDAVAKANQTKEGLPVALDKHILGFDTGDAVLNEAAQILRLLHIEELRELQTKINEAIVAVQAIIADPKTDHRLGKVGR

In the case of “FLAG-RTCB complexes (human tRNA ligase complex affinity-purified by FLAG-RTCB) (from UniProt Q9Y3I0;Q92499;Q52LJ0;Q9Y224;Q9BVC5)”, in test [1], the equilibrium dissociation constant (Kd) (as a rule, the equilibrium constant for the complex coming apart) is 1.8 nM.

Consider `Nc1nc2c(ncn2[C@@H]2O[C@H](COP(=O)(O)OP(=O)(O)OP(=O)(O)O)[C@@H](O)[C@H]2O)c(=O)[nH]1` [GTP], for which the “radiolabelled guanylation, SDS-PAGE autoradiography” value in test [2] is on record as “Formation of a radiolabeled band corresponding to guanylated human FLAG-RTCB required the addition of WT Archease”.

For the origin of these results see paper PMC4417724 (Nature, 2014).
